This is an account of results in publication PMC10724926, “Characterization of an efficient N-oxygenase from Saccharothrix sp. and its application in the synthesis of azomycin” (Biotechnology for Biofuels and Bioproducts, 2023).

Data set [1] has as its system Nc1ncc[nH]1. Description: purified protein. The settings on record: pH 5.5, 25 °C, 20 min, 10 µM enzyme, 2 mM FeSO4, 50 µM PMS, 5 mM NADH, 20 mM HEPES.
The test system of data set [2] is T1, SaRohS.
T1 construct: codon-optimised gene in pETDuet-28a+, E. coli BL21 (DE3), Ni-NTA purified
Description: HPLC of azomycin formed, Michaelis-Menten fit. The settings on record: pH 5.5, 25 °C, 20 min, 10 µM enzyme, 2 mM FeSO4, 50 µM PMS, 5 mM NADH, 20 mM HEPES. In kind it is biochemical, Saccharothrix sp. The text has this: HPLC of azomycin formed, Michaelis-Menten fit on SaRohS

Read-outs that look alike come from different tables or passages of the source.

For KaRohS (Kitasatospora azatica), in data set [1], the Km came to 390.55 ± 0.02 µM, the catalytic constant (kcat) turned out to be 0.00383 ± 8.33e-05 s⁻¹ and the specificity constant (kcat/Km) was 10 M⁻¹ s⁻¹.
Turning to `Nc1ncc[nH]1` [2-aminoimidazole], the Km in data set [2] was 182.69 ± 0.01 µM; in data set [2] (read-out: G95A/K115T) it was 82.68 ± 0.001 µM; in data set [2] (read-out: T75A) it was 924.17 ± 0.1 µM.

In general, kcat refers to the maximal rate divided by the concentration of active sites. For orientation: kcat/Km means the second-order rate constant that governs catalysis at low substrate concentration.
